The assay concerns the target SpPks1 (sea urchin polyketide synthase, Strongylocentrotus purpuratus) (Strongylocentrotus purpuratus). Briefly: SEC.

Take “SpPks1 (sea urchin polyketide synthase, Strongylocentrotus purpuratus) (enzyme)”: the stoichiometry N (as a rule, a count of units in the complex or per binding partner) stood at 2.

The values are drawn from paper PMC9526445.
